Here are results for two molecules from doi:10.1101/2021.05.24.445441 (bioRxiv, 2021).

In one series the target is p75-TM-C257A (human). The series can be described thus: NMR cross-correlated relaxation rates.
The series “NMR titration” deals with the molecule itself. The series can be described thus: NMR titration.

No end group written: not given here.

p75-TM-C257A (domain or fragment): the stoichiometry N (in general, the number of molecules, sites or subunits per partner or assembly) with p75-TM-C257A (human) worked out at 2. In the case of MKKDETPFGVSVAVGLAVFACLFLSTLLLVLNKAGRRNK (domain or fragment, also: 15N-labelled in one titration, unlabelled in the other) [human TrkA-TM], in the series “NMR titration”, the binding result is “binds”.
